Target: T1, MBP-GlnR (Mycobacterium smegmatis (SMR5?)) (UniProt A0R4C4)
T1 sequence: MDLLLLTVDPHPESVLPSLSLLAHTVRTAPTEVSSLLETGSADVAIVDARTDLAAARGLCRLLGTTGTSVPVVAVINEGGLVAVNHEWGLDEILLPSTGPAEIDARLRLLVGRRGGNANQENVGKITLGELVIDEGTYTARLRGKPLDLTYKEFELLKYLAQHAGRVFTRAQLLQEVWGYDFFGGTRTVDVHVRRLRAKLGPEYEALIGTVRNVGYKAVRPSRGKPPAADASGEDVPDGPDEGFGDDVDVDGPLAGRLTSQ
Assay: EMSA
Details: GlnR: DIG Gel Shift Kit (Roche) buffer, 6% native PAGE, 0.5x TBE; AmtR: 20 mM Tris-HCl pH 7.9, 25 mM KCl, 1 mM DTT, 5 mM MgCl2, 0.5 mg/ml BSA, 5% glycerol …

| Sequence | binding |
| --- | --- |
| CCAGTCCAGGAAATCACCGGATATCGGCTGGCGCGTCATTTTGACGGAAAACGTGGGGTACGCCGTTTCGCCGGGTCACCTCGGCGAACCACCGTGCGCTGGCCTTGGGCGTGCGGACCTGCGTGGCGTAATCGACGTGGATCAGGCCGAACCGCTTGGCGTAGCCGTACGCCCACTCGAAGTTGTCCAGCAGGCTCCACACGAAATAACCGCGGATGTCGGCACCATCGTCGATCGCCCG (double strand) [narK upstream] | no binding |
| TTCGGTGTACCTGTGGAAGAACACCGTGGAGAAGGCACAGTCCTTCGACGTCAAGGCAATTCAGGACAACGCCGATGGCGTGAGCTTCGACGCGCCCGAGGGCAAGGTCACCATCGACGGCGAGAACCACCACATCACCAAGACCGCCCGCATCGGTGAGATCCGCCCCGACGGCCTGATCTACACGGTGTGGGAGTCCAAGGGCCCCATCGAGCCGGATCCGTACCTGAAGTCCTACCCGTGGGCCGCAGGGCTGTCGAGCTGATCAGATAGTCACACCGAGGGGGATCTGACAACCGT (double strand) [msmeg_2981 upstream] | no binding |
| CCCAGCTCGCCACTCTCGATGGTGGCCAGCACCAGGGACTTCTCGGGCACGAACCCGAGCACGGCGGGCAGCGCCGCGATCAACGATCCGGGCCGGTTGATACGAAAATCCGGTGTGTGCGGTGAAGGTGTCATGTGCCGACCGTGGCAACCGGCGCCGACGCCGTTCACCCCGAAAACCGGCTGCGACGAGTGGCTGTGGACGAAATCGGCTCTGGGGACAACTTCCGAAACAAACTGTTCACGCGCCATTGCGCGTCTCCGGCGTGCACGCGCGCCGACAGCGGCGTACACACTGACC (double strand) [msmeg_2748 upstream] | no binding |
| AACGGTGTGCTTCCTCCGCTGTAGGTGGATCACCGCGTGAAGCGGGTGACCGGTGCAGGGTCGGCGCAACTTACTGCGCTTGGAAAATGCTCGCGCAGGAACGTTTCGGTGGATCCCGTCGGCAATGTCGGTGACGTTAACTCTGCACGGCCCCGCGTTACGTTGTGGTGACCTGACGCAACGGATTTCGTTGTGTGTCCGGTAGGCCCGCGTGACGACGAACCCGGCCGGCCGATGTTCGGCCGACCGGGTCGTCACGAGGTCACGGCTA (double strand) [msmeg_2526 upstream] | binds |
| GGGGTCACCACCTGCTGCTCGGCATCCACCATGTATCCCAGGAACGCACCGGCCCGGCGCGAAACGTGGTAGTGCACCACGAGTTTGCGCCCGCATCCGGTGCAGCCCACCAGGCCGTCGATCTCGACCGCGGCGGTGGTGACGGCGCGGCAGTGCGTACAGAACACGTCGCGGTGGGCGACCTCGGTGCTCGCGATCGTGATCTCGTCGTCGGCGATACCGTGCGCGAGGGCGTGGGCACGCACACGCAGATTCAGGTGAGCGGGGCCGGCGGTCATCAGTCGCCAGCCCACCACCGCG (double strand) [msmeg_4638 upstream] | no binding |
| CGGGGTCATCGGGCGGTCCGGCACGCCCGGCAAGGCCTGGGCCTGGCAGACCCGCTCGTGGTCGAAGGGCAAGATCCACCCCGCGGCGGTGCTCTATCAACACACCATCGACACCGCGTCGAACCCCGGACCGTTGGTCGGCGGCATCCGCGTGGATGTCAACGACGCCTTGGCCCAGGACATCGGCCAGTGGAATTTCCACCCCTGAGGTCACATCACTTTAATCTCGACGCAATTGCGTTGCCATACCGGTGATCTCTACTGAAGGCGCCAGCAGCCCCCTTCAGAGGACACCCGCCC (double strand) [msmeg_6816 upstream] | no binding |
| GGACCGGGACCGGATAGCCAGGATCCCAACCGGGAGCCGTTTGTGCGGGCCATGATGTCAGGATAGGCGCGTGCGGATGTCCGGCCGCCGGGTGCCACGTCGCGACGCGGTTCACACCGATGTGTGCTGGAGTTCACCGGCGGACACGCTCAAACCGATTGCGTAACGTCGGCGCAACATCGGGTTGACGACTGCGCAACATCGTGTCCTTAGCGTCAACGCGCGGGTTACCAGTAAAGGAGAACACTCA (double strand) [glnA upstream] | binds |
| CAAACATCTCCTCACGGTGGCGGCTCGAAACAAGCCGTTCACTCGCAGTAACCGACGTTTCTGTTACGGAGATGGTCGCCAAGTGTTGCAGCGTGGTTAAAACTCAAACCGCGCTTTACAGCGGGTTGCCCCATCGGCCCGTGAACGCAACCTGCTCAAGTGCCAGACGTTCACGCGGGCGGCTGTCGCGTTCGGCGATGGCCTCGTCGGCCGTCGCGTAGTCACCGAGGTGTCCCAGCG (double strand) [amt1 upstream] | binds |
| GTCCGCCAAGTTACCGGCCGGAAAAATAAGGTGCGCGCCTCCCTTATCCTTGTTGGGACTCATTCCGGCTCGATCCCACATGCGAAAGGTTGATCAGGTGGCGCTCGTCGTACAGAAATACGGCGGATCCTCGGTGGCGGACGCCGAGAGGATCCGACGGGTCGCCGAGCGGATCGTCGAGACCAAGAAGGCGGGCAACGACGTCGTCGTCGTCGTCTCCGCGATGGGTGACACCACCGATGACCTGCTGGACCTGGCGCGCCAGGTGTCGCCCGCGCCGCCGCCGCGCGAGATGGACAT (double strand) [msmeg_6258 upstream] | no binding |
| CCGCGACGTCGACCGCGCGCCCGGTCACCGGGCCCGGACCCGGCAAGGTGGTCGTGGTGTCGACGACAGGGGACCCGGCGACGCCGTACCAGGCCGGTGTGGACCTCGCCCGGCAAATGGGCGCGGCCCTGATCAGTTTCGACGGTGCGCAGCACACCGTGGTGTTCAACGGAGATGCCTGCGTCGACACCGCGGTGTTGCGCTTCCTGACCGATCTGCAGTCGCCCCCGGGCAACCTTGCCTGCTAGCTCTTGCACCCCCGTAACACAGATTTAACAGCCGGTGCATACGCTGCGGAGC (double strand) [glnA2 upstream] | binds |
| GCCCTCCGGGCGGTATCTGCGCCTGAACTTCTCCGGGCCGGAGCCGGACCGGTTCGAGGAGGCGGCGCGCGTGATCGGACGGTCGCTGCGCAGACAGCTGTGACCCGGCGGTTGTGGCCTGACTGTGGTCCGGAGAGCTCACCGGTCGGGGACCTCACATGTGCGTTGCCGAAGACGTGAGCACACCGTGATGGGGGCTTCACACAGCGCGACATCGCGGCAATATCGGGTTCTTAGCCTCGCCCTATG (double strand) [nirB upstream] | no binding |
| GTGTGAACCTCCTTGGGAAGTGCGCCGACGGATCGGCCTCCCGATGAGATTCTGTTGCCGGCGTTTCGCCGGTGCTGCCGTTGCGTTTCCGGAAAGTGAACGCAATCCCGATCACTGTTACGCTCATGTTTCCCGCCGACAAAGCACAGGTCGTTGCACAGCCAACGCCGGCTGTAACGCCCCGCAAACACTCCCGCTGCGGCGCCGCGAACCCGACGTC (double strand) [amtB upstream] | binds |
| TGCAGTATCACTACTTTCTTGTTATCCACTTGTCAGGCGTTCGCGGTCTCTGGAGTTTGCTGTGAGGTTTCCTTGAGCCCGAGGCGGGCCCGGATGACGAGGCCGATGACGAACAGTGCCGCGGTGACGATGAACGGCGCCCAGTCGACCCACGGGTCGCCCGTGCGGGGCCACAGGACGTTGACGGTCTCCACGATCACCCACACCAGCGCGAGCCACCCCGCAACGTGTCCGGCACGGCCCAGGAAGGTCGGTTCGGTGGGGTCCCAGGTGCCCCGGAGCTTGCTGATCGCCAACCCC (double strand) [msmeg_6734 upstream] | no binding |
| GAACAACCTTTCCCGATGATTGCAGCGCATTTTGGGCCGATCGCCTCGGCCGCGGTGCAGGAGGTTAAACACACTGTGCTGGTGTCGAATCGGGACGTTAGAGCGCGCGTGTTACTGCCAAATGTCTGTGTGTGACGAACAAATTAACCTCGACATGACATGCCGCTGGTTTGCCGCCGGTTCTCGACGCCGTGACACCGGCGTGGCGTGTGTAACGGGGAGGTAGCCTGCGTCGATATG (double strand) [urtA upstream] | binds |
| TGAGGGTCCTAATCCGTCCCTGAACAGGGAAATTACCGGACCATTTTTTGGTCTGGTCTGAGAATGTCGCCGACGACGTTGTGCTGCGACGCTGGCAATTGTTACCGCGCCCAGATTCGTTGGTCAACTTGGAATTACCTGTACATATGCGGGTTTGTTGCAAACATGTTTCGAAGCTGGGAGCCATGCAACGGCAGCGTAAAAATTCTCGATTTGGTCTGCTCTGGTTCGGCTTTTGGTCCACACTCTTCGACATGCCGGGACTTCCAGCTGACCACGAACTGTTCGCGCGCGCCGCAC (double strand) [msmeg_0781 upstream] | binds |
| GGGTCTCTCCAGGGAGGCGATGAGGGTGCGGGCGGCGACAGTGCCGGGAGCCGGATGATCGGCTGGGTCAATTACAGGCCCCGGCCATTGCCGTGTGGTTAGGGATGGACTACTTCTGAATTGCCGAAATCTCACAGCGGCAATGTGCTCGTAATAAGTGCAGCATGCGCCTTGACCTCAACCTCACTTGAGGTGCCAGGCTGGCTCTCATGACATGTGGACTCCAGTGGCCAGAGGCGGTAAACCGCCGCGAACCCGGGGGTAAACCCCCTGGGGACCTGGATCGGCACGCAGTAACTT (double strand) [msmeg_0572 upstream] | binds |
| GGTGGCGGCGAGTTCGATACCGCTGTCGCTCAACGTGACCGGCGGCCACCCCAATCCGGTGAGGTCCACGAGCCTGCGCAGCTGAGGTTGGGGCTCGGAAAACAGCCAGGTCCCACCGGCCAACACCGCGTCGCCGGCCCCCAGCGGCCACACCTCCTCGCGACGGGTCGGCCGGTCCACCACCTCGACGGTGTTGAGGTCCATTCCCGCGACCGTAACCAAAGTGAACGCGCCGTGCACCATGAACCGTGGCACAACGCTCGGCGTGCGAACCGCCGCGATCTGTCCGATTCTTAGTCG (double strand) [msmeg_1293 upstream] | no binding |
| CATGTGCCACCGTCGCGGCACGCGCGCCGACGAGTTCGCGCGCAGCCGCGGGCAGTTCGGCCGTGGCGGCGCGCAGACCGGCCACCGAGGTCGCCGCGTCGATGTGGCGCTGCACGAGGTCGGGGGCGGGCATACCGGCGATTGTGACAGGCCCACGGGCGGTGAGGGTTCTGCAACCGAATGCTTACCGACGGCTACATGAACGAAACATTCGGGTGACGCCGAGGACACGCGCCCATTGTTATCTGTCATCTGACAGGTAAGAGCTGGCGGCAGCGCCCCTAGCCAGAGAGAAAACCC (double strand) [msmeg_2184 upstream (GlnR probe)] | binds |
| CCGGATGTTCCTTTCAGCTCTGCAGATTCGGGTGCCGTCAGTCCCAGTGCGCCTTGAAACCCAGTGCCGGGACGGTCTCCCCCAGCCCGGGTGTGGAGGCCTTGCGGATCAGGGCCAGTGTCTCGGCATACGTGGTGTGGTTCTCCGCGAGCCGCTCGGCGGGCACGGGCAGGCCCGCGAACTCGAACGCCGCGGAAATCTGTTCCTGCGATGGCATGAAATCGGACATGGTTCTCCTCGCTCTCAGAGGTTGGGGGTGAAGTCGACGAAACCGGCGATCCGCTCGAAGGCCCGGCCTG (double strand) [msmeg_1090 upstream] | no binding |
